Legend:
[1] = test system: slices prepared from prefrontal cortex; assay: Inositol phosphate formation in prefrontal cortex slices; assay type: cell-based, mouse; details: CRF 500 nM pretreatment
Procedure: Slices were incubated for 15 min at 37° C. […] (final volume=270 μl).

[2] = molecular target: T1, 5-HT2AR (Homo sapiens, UniProt P28223); assay: 5-HT-stimulated inositol phosphate formation in HEK 293 cells transfected with FLAG-5-HT2AR and HA-CRFR1; assay type: cell-based
T1 construct: expressed in transfected cells; host or cells: HEK 293
T1 sequence (P28223 whole entry): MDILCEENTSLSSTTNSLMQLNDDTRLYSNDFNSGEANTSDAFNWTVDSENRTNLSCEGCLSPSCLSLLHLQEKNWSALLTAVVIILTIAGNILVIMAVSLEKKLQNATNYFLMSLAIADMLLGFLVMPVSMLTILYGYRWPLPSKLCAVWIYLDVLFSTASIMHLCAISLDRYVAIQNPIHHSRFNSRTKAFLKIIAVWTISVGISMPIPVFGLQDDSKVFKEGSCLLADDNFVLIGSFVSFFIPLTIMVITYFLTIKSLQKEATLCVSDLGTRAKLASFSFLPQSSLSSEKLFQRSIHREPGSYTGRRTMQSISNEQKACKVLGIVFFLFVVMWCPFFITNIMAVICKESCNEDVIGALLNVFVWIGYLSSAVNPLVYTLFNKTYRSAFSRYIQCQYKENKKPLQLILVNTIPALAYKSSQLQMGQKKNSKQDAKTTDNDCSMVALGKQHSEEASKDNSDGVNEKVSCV

[3] = molecular target: T2, HA-CRFR1 (Homo sapiens, UniProt P34998); assay: Receptor endocytosis by flow cytometry in HEK 293 cells; assay type: cell-based; details: 500 nM CRF for 30 min at 37° C.; cells expressing only wild-type CRFR1
T2 construct: expressed in transfected cells; host or cells: HEK 293
T2 sequence (P34998 24-415): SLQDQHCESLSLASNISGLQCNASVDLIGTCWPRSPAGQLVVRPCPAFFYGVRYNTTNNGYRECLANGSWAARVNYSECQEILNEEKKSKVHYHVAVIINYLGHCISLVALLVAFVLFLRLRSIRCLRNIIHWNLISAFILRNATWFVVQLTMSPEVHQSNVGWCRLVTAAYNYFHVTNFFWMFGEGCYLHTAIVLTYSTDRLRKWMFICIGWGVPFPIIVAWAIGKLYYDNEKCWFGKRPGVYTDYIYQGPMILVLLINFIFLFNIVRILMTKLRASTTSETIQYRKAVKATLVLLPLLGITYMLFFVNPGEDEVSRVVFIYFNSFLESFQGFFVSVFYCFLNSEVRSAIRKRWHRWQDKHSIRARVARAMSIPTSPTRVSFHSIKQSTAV
Procedure: Cells were seeded on 10 cm dishes at 70-80% density 24 h prior to transfection. Transfection was performed using a modified calcium phosphate method, as described previously (Ferguson et al. (2004) Methods Mol. Biol. 237, 121-126). 1 μg of each construct was used for each transfection, with the exception that 3 μg of plasmid cDNA was used for all shRNA constructs. Empty pcDNA3.1 vector was used to equalize the total amount of plasmid cDNA used to transfect cells. 18 h post-transfection, cells were washed with phosphate buffered saline (PBS) and re-suspended with Trypsin 0.25% EDTA. Cells were then reseeded for experimentation. All experiments were conducted approximately 48 h after the initial transfection, with exception of transfections involving SAP97 shRNA, which were conducted 72 h after initial transfection to optimize the knockdown of endogenous SAP97, as confirmed by Western blotting.
Following transfection, HEK 293 cells were re-seeded into 12-well plates. […] Cells were washed with cold HBSS and treated with mouse anti-HA antibody (1:500) for 45 min on ice. […] Samples were run on a FACSCalibur cytometer using BD CellQuest Pro software until 10,000 cells were counted. The geometric mean of fluorescence was determined using FlowJo analysis software, with less fluorescence corresponding to less CRFR1 on the membrane.

CRF: 41 amino acid peptide that activates the HPA axis; agonist of CRF receptors
increase in 5-HT-stimulated inositol phosphate formation ([1]; stimulated with 5-HT): 2.3±0.2 fold
increase in DOI-stimulated inositol phosphate formation ([1]; stimulated with DOI 10 μM): 1.5±0.2 fold
increase in maximum efficacy (EMAX) for 5-HT2AR-stimulated inositol phosphate formation ([2]; CRF pretreatment 500 nM for 30 min, cells expressing 5-HT2AR along with CRFR1): 40±4.7%
effect of pretreatment on 5-HT dose-response curve for inositol phosphate formation, 5-HT2AR ([2]; HEK 293 cells expressing 5-HT2AR in the absence of CRFR1, CRF 500 nM 30 min): had no effect
loss of cell surface HA-CRFR1 [3]: 24±4%
